Data published in US6677440.

Columns and labels:
[1] = molecular target: blood clotting factor VII (UniProt P08709)
prourokinase = prourokinase (UniProt P00749)

Sequence of proenzyme form of the factor VII-activating protease (chain, as listed by the source): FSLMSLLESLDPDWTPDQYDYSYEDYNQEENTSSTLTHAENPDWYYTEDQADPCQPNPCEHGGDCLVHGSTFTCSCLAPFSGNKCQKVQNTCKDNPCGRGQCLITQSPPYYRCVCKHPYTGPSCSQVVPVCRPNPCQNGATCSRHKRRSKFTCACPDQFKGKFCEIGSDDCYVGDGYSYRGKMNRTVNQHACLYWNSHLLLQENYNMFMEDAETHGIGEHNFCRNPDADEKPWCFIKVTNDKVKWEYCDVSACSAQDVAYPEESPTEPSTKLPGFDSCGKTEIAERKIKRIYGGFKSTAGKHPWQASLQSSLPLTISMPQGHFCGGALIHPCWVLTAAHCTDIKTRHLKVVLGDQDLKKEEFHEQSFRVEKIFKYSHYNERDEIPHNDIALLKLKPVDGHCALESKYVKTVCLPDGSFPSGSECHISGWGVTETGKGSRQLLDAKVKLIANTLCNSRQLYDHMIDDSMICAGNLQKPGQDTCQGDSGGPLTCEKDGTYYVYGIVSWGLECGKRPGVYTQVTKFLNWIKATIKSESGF
Sequence of blood clotting factor VII (P08709 61-466): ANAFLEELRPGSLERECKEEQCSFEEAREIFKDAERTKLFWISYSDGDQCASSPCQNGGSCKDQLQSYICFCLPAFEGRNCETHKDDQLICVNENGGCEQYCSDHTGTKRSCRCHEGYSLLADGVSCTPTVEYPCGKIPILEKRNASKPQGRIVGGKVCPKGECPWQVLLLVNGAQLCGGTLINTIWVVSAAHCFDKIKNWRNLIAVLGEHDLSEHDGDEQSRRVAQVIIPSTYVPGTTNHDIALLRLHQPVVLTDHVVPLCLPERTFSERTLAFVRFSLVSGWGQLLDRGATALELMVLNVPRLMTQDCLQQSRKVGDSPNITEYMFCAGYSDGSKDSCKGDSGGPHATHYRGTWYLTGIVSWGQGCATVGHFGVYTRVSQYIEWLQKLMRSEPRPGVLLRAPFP

proenzyme form of the factor VII-activating protease
activation of factor VII, with subsequent detection of activated factor VII (activity tests of Example 1) [1]: The activity tests (see Example 1) confirmed the nativity of the protein in the sense of the retainment of the biological activities | activation of prourokinase, with subsequent detection of urokinase (activity tests of Example 1) (prourokinase): The activity tests (see Example 1) confirmed the nativity of the protein in the sense of the retainment of the biological activities
